Our source for the percent of input pelleted with F-actin values is article PMC10182306.

The target of the test is human platelet actin (human) (UniProt P60709). In words: co-sedimentation.

Regarding “α-actinin (from UniProt P12814 1-892) (natural protein)”, the percent of input pelleted with F-actin is 77%.
